Results on seven proteins are retold here after patent US20230159610A1 (BIOTEST, published 2023).

Positions count from the first letter of the chain named.

This data set deals with the molecule itself. The experiment in a line: dimer formation of the expressed construct (self-association), Western blot of transfected cells. (Immunoblotting shows a protein as a band on a membrane.)

B1: FcTregV1 (other)
chain: DKTHTCPPCPAPELLGGPSVFLFPPKPKDTLMISRTPEVTCVVVDVSHEDPEVKFNWYVDGVEVHNAKTKPREEQYQSTYRVVSVLTVLHQDWLNGKEYKCKVSNKALPAPIEKTISKAKGTDFTLTISSLQPEDDELTKNQVSLTCLVKGFYPSDIAVEWESNGQPENNYKTTPPVLDSDGSFFLYSKLTVDKSRWQQGNVFSCSVMHEALHNHYTQKSLSLSPGKLNNFYPREAKVQWKVDNALQSGNS
notes: Tregitope carrying polypeptide (TCP) built on the human IgG1 Fc-part: Treg289 in frame A, Treg084 in frame C, Treg134 C-terminal; also called Construct V1
Turning to B1, the binding result was “binds”.

B2: FcTregV14 (other)
chain: B1 chain with Q77N
notes: TCP on the human IgG1 Fc-part: Treg084 in frame C, Treg134 C-terminal; also called Construct V14
Turning to B2, the binding result is recorded as “binds”.

B3: FcTregV13 (other)
chain: DKTHTCPPCPAPELLGGPSVFLFPPKPKDTLMISRTPEVTCVVVDVSHEDPEVKFNWYVDGVEVHNAKTKPREEQYQSTYRVVSVLTVLHQDWLNGKEYKCKVSNKALPAPIEKTISKAKGTDFTLTISSLQPEDDELTKNQVSLTCLVKGFYPSDIAVEWESNGQPENNYKTTPPVLDSDGSFFLYSKLTVDKSRWQQGNVFSCSVMHEALHNHYTQKSLSLSPGKKTLYLQMNSLRAEDTAKH
notes: TCP on the human IgG1 Fc-part: Treg289 in frame A, Treg084 in frame C, Treg088x C-terminal; also called Construct V13
B3: the binding result is “binds”.

B4: FcTregV32 (other)
chain: DKTHTCPPCPAPELLGGPSVFLFPPKPKDTLMISRTPEVTCVVVDVSHEDPEVKFNWYVDGVEVHNAKTKPREEQYGGLVQPGGSLRLSCAASGFTFEYKCKVSNKALPAPIEKTISKAKGTDFTLTISSLQPEDRDELTKNQVSLTCLVKGFYPSDIAVEWESNGQPENNYKTTGGLVQPGGSLRLSCAASGFTFRWQQGNVFSCSVMHEALHNHYTQKSLSLSPGKKTLYLQMNSLRAEDTAKH
notes: TCP on the human IgG1 Fc-part: Treg009A in frame A, Treg084 in frame C, Treg009A in frame B, Treg088x C-terminal; also called Construct V32
Turning to B4, the binding result is on record as “binds”.

B5: FcTregV23 (other)
chain: DKTHTCPPCPAPELLGGPSVFLFPPKPKDTLMISRTPEVTCVVVDVSHEDPEVKFNWYVDGVEVHNAKTKPREEQYNSTYRVGTDFTLTISSLQPEDEYKCKVSNKALPAPIEKTISKAKGQPREPQVYTLPPSRDELTKNQVSLTCLVKGFYPSDIAVEWESNGQPENNYKTTPPVLDSDGSFFLYSKLTVDKSRWQQGNVFSCSVMHEALHNHYTQKSLSLSPGK
notes: Human IgG1 Fc-part with Treg084 in frame A; also called Construct V23
Consider B5, for which the binding result is recorded as “binds”.

B6: FcTregV20 (other)
chain: DKTHTCPPCPAPELLGGPSVFLFPPKPKDTLMISRTPEVTCVVVDVSHEDPEVKFNWYVDGVEVHNAKTKPREEQYNSTYRVVSVLTVLHQDWLNGKEYKCKVSNKALPAPIEKTISKAGGLVQPGGSLRLSCAASGFTFNQVSLTCLVKGFYPSDIAVEWESNGQPENNYKTTPPVLDSDGSKTLYLQMNSLRAEDTAKHVFSCSVMHEALHNHYTQKSLSLSPGK
notes: also called Construct V20
For B6, the binding result was “binds”.

B7: FcTregV34 (other)
chain: DKTHTCPPCPAPELLGGPSVFLFPPKPKDTLMISRTPEVTCVVVDVSHEDPEVKFNWYVDGVEVHNAKTKPREEQYNSTYRVVSVLTVLHQDWLNGKEYKCKVSNKALPAPIEKTISKAKGQPREPQVYTLPPSRDELTKNQVSLTCLVKGFYPSDIAVEWESNGQPENNYKTTPPEEQYQSTYRVVSVLTVLHQDWQQGNVFSCSVMHEALHNHYTQKSLSLSPGKKTLYLQMNSLRAEDTAKH
notes: TCP on the human IgG1 Fc-part: Treg289 in frame B, Treg088x C-terminal; also called Construct V34
In the case of B7, the binding result is on record as “binds”.
